These results are taken from PMC12732657.

Assay [1] addresses Bovine pancreatic β-trypsin (bovine).
For assay [2] the target is unchanged. In words: ITC; CVTI (200 µM) injected in 2.02 µL steps into 170 µL cell with bovine trypsin (20 µM); 50 mM Tris pH 7.8, 150 mM NaCl; Nano ITC.

“Cleome viscosa trypsin inhibitor (natural protein)”: the Vmax of caseinolysis by trypsin (5 µM) in the presence of CVTI (15 µM); 20.23 µM/min without CVTI in assay [1] was determined as 16.7 µM/min. In assay [2], this substance returned a Ka of 513000 M⁻¹, a Kd of 1.95 µM, a dH of 321 kJ/mol and a stoichiometry N of 1.1.
